In US20070154994A1 (NATIONAL RESEARCH COUNCIL OF CANADA, published 2007):

Tests used:
Recombinant human TGF-β1 [1] = biological target: T1, Recombinant human TGF-β1 (human, UniProt P01137 279-390); experiment: SPR, TGF-β1 coupled, two-to-one stoichiometry model, Kd 1 (first site)
T1 construct: It was amine coupled to the CM5 chip in SPR and used at 10 pM in the luciferase assay; also called transforming growth factor-β1
Description: (§1) As described in Example 3, TGF-β1 was coupled to the biosensor surface (approximately 250 RUs) by a standard amino coupling procedure. […] After data preparation by the ‘double referencing’ method, the set of sensorgrams was globally fit using a kinetic model depicting the presence of two independent TβRIIED binding sites on the TGF-β1 molecule (two-to-one stoichiometry model).
(§2) Regeneration of the sensor chip for subsequent injections was accomplished by two pulses of HCl (20 mM, 120 seconds), followed by an EXTRACLEAN procedure performed according to the BIACORE manual.

Recombinant human TGF-β1 [2] = biological target: T1, Recombinant human TGF-β1; experiment: SPR, TGF-β1 coupled, two-to-one stoichiometry model, kass 1 (first site)
Description: as §1, §2

Recombinant human TGF-β1 [3] = biological target: T1, Recombinant human TGF-β1; experiment: SPR, TGF-β1 coupled, two-to-one stoichiometry model, kass 2 (second site)
Description: as §1, §2

[4] = biological target: T2, TβRIIED-E5 fusion protein (human); experiment: SPR (BIACORE), TβRIIED-E5 captured on the coupled anti hTGF-βRII antibody, TβRIIED-K5 injected at 50 nM
T2 construct: Secreted from HEK 293SF cells; also called TβRII ED-E5 coil; E5 coiled-tagged TβRIIED
T2 chain: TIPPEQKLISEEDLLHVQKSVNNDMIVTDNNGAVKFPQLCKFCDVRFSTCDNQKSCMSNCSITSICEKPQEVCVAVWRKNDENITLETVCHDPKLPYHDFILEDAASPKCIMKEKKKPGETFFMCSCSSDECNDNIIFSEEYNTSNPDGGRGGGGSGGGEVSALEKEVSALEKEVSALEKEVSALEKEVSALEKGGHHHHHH
Description: A solution of 0.1 M ethanolamine-HCl (pH 8.5, 35 μL) was then used to block the remaining activated carboxyl groups.
Three studies were then performed at a flow rate of 5 μL/min: [0183] […] [0184] […] [0185]

Recombinant human TGF-β1 [5] = biological target: T1, Recombinant human TGF-β1; experiment: SPR, TGF-β1 coupled, two-to-one stoichiometry model, kdiss 2 (second site)
Description: as §1, §2

Recombinant human TGF-β1 [6] = biological target: T1, Recombinant human TGF-β1; experiment: SPR, TGF-β1 coupled, two-to-one stoichiometry model, kdiss 1 (first site)
Description: as §1, §2

Recombinant human TGF-β1 [7] = biological target: T1, Recombinant human TGF-β1; experiment: SPR, TGF-β1 coupled, two-to-one stoichiometry model, Kd 2 (second site)
Description: as §1, §2

T1 sequence (P01137 279-390 limits assumed): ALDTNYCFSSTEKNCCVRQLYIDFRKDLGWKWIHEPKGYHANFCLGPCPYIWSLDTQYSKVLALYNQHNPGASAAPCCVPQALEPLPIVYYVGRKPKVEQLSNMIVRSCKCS

B1: TβRIIED-K5 fusion protein (receptor)
chain: TIPPEQKLISEEDLLHVQKSVNNDMIVTDNNGAVKFPQLCKFCDVRFSTCDNQKSCMSNCSITSICEKPQEVCVAVWRKNDENITLETVCHDPKLPYHDFILEDAASPKCIMKEKKKPGETFFMCSCSSDECNDNIIFSEEYNTSNPDGGRGGGGSGGGKVSALKEKVSALKEKVSALKEKVSALKEKVSALKEGGHHHHHH
notes: Secreted from HEK 293SF cells; The monomer was separated from aggregates with a Centriprep 30; also called K5 coiled-tagged TβRIIED; monomeric TβRIIED-K5
Recombinant human TGF-β1 [1]
  Kd: 90 nM
Recombinant human TGF-β1 [2]
  kon: 365000 M⁻¹ s⁻¹
Recombinant human TGF-β1 [3]
  kon: 1900 M⁻¹ s⁻¹
[4]
  binding result: binds
Recombinant human TGF-β1 [5]
  koff: 0.0026 s⁻¹
Recombinant human TGF-β1 [6]
  koff: 0.033 s⁻¹
Recombinant human TGF-β1 [7]
  Kd: 1250 nM
